Measurements as given in article PMC5134096.

Target: soluble manganese peroxidase (MnP) from Irpex lacteus F17 (Irpex lacteus F17)
Experiment: SEC + other: dynamic light scattering; soluble MnP after Ni-NTA; HiLoad 16/60 Superdex 200 in 20 mM Tris-HCl pH 8.0, 200 mM NaCl; SEC peak II, DLS at room temperature at 0.1 mg/ml in the same buffer

For “soluble manganese peroxidase (MnP) from Irpex lacteus F17 (enzyme)”, the stoichiometry N was 2.
